Test results: patent US20220089683A1 (ACCELERON PHARMA, published 2022)

T1: activin A (UniProt P08476 311-426)
T1 sequence (looked up): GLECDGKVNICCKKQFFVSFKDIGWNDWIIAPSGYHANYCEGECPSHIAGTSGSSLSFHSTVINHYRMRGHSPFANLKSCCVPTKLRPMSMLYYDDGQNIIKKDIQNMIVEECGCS

T2: activin B (UniProt P09529 293-407)
T2 sequence (looked up): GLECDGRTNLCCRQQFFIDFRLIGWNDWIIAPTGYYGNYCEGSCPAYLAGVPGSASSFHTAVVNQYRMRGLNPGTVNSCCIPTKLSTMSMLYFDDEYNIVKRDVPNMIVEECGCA

B1: GDF11 (ligand, UniProt O95390 299-407, looked up)
chain: NLGLDCDEHSSESRCCRYPLTVDFEAFGWDWIIAPKRYKANYCSGQCEYMFMQKYPHTHLVQQANPRGSAGPCCTPTKMSPINMLYFNDKQQIIYGKIPGMVVDRCGCS
notes: also called BMP11
B2: ActRIIB(20-134)-hFc (Fc fusion)
chain: GRGEAETRECIYYNANWELERTNQSGLERCEGEQDKRLHCYASWRNSSGTIELVKKGCWLDDFNCYDRQECVATEENPQVYFCCCEGNFCNERFTHLPEAGGPEVTYEPPPTAPTGGGTHTCPPCPAPELLGGPSVFLFPPKPKDTLMISRTPEVTCVVVDVSHEDPEVKFNWYVDGVEVHNAKTKPREEQYNSTYRVVSVLTVLHQDWLNGKEYKCKVSNKALPVPIEKTISKAKGQPREPQVYTLPPSREEMTKNQVSLTCLVKGFYPSDIAVEWESNGQPENNYKTTPPVLDSDGSFFLYSKLTVDKSRWQQGNVFSCSVMHEALHNHYTQKSLSLSPGK
notes: also called ActRIIB-hFc; hActRIIB-hFc

Key:
ActRIIA-mFc = target: T3, ActRIIA-mFc (human, UniProt P27037 21-135); assay: SPR (Biacore), ligand amine-coupled on CM5 chip, fusion protein loaded in solution
T3 construct: also called hActRIIA-mFc; not shown: mouse Fc domain
T3 sequence (P27037 21-135): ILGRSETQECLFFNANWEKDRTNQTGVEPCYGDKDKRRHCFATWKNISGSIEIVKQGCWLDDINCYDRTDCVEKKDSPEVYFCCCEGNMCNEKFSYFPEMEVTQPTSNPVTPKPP
Protocol: GDF-11 or activin A were immobilized on a Biacore™ CM5 chip using standard amine-coupling procedure. ActRIIA-hFc and ActRIIA-mFc proteins were loaded onto the system, and binding was measured.

GDF11 = target: B1; assay: SPR (Biacore)
activin A = target: T1, activin A; assay: SPR (Biacore)
activin B = target: T2, activin B; assay: SPR (Biacore)

binding result (ActRIIA-mFc)	Kd (GDF11) [nM]	Kd (activin A) [nM]	Kd (activin B) [nM]	Binder
binds				B1
	0.036	0.016	0.012	B2
